The assay concerns the target T1, vascular endothelial growth factor receptor 2 (UniProt P35968 20-764).
T1 construct: VEGFR2 (vascular endothelial growth factor receptor 2); probably a bought recombinant protein (surmise); also called VEGFR2; VEGFR-2
Description: SPR; Biacore S200; ASP-3 immobilised on a CM5 chip (NHS/EDC activation); VEGFR2 at 100, 50, 25, 12.5, 6.25 and 3.125 nM flowed over for 180 s at 10 μL/min; running buffer HBS-EP+; reference channel subtracted. Conditions: both partners purified.

T1 sequence (P35968 20-764): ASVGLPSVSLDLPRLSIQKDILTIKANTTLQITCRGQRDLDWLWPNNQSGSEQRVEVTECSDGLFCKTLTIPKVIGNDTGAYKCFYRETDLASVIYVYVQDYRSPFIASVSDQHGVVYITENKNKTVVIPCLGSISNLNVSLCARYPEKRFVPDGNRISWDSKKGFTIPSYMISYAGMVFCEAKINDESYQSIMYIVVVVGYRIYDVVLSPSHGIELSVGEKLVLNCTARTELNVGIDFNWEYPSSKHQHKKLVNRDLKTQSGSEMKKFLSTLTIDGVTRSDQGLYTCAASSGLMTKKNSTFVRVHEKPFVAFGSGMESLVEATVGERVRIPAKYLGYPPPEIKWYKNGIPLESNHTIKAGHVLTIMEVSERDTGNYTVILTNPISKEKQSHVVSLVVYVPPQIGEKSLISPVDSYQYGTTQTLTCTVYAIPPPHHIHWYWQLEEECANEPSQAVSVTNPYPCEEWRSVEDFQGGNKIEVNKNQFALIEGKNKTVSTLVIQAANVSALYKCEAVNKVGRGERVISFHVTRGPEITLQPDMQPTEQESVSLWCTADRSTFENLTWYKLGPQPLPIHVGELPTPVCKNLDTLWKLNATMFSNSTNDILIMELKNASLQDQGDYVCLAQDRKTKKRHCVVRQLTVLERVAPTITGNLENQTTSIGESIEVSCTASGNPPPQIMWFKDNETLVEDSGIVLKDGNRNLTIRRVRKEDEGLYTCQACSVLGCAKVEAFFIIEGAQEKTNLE

B1: ASP-3 (natural protein, Arca subcrenata)
chain: MDYLTSKWKLWFHSLDVNHDGKISFEDVEESRNKFTDLHKLLGDKASGVKVDMESWWNTYIFKASGGGELSEEMFIKSNTDRYNKDKAAFLNDIQKCFNMIFDVIDTNKDRSIELNEFIYAFKAFGHENEGLVTKAFELLEPKEGLVPLRDIVNAWVSFVTSTDQSKPDAIKQAFDAGF
notes: ASP-3, Arca subcrenata Lischke, 179 amino acids, 20.6 kDa; Native protein isolated from the animal; also called Arca subcrenata protein; cds.c115914_g1_i1
By Kd is commonly meant the free concentration of one partner at which half of the binding sites on the other are occupied at equilibrium, for simple one-to-one binding. Low values mean tighter binding, high ones weaker binding. The molecule B1 gave a Kd of 39.9 nM. That is a double-digit nanomolar value.

The record behind these values is PMC6780846, “Identification and Characterization of a Novel Protein ASP-3 Purified from Arca subcrenata and Its Antitumor Mechanism” (Marine Drugs, 2019).
